Data published in US20170008955A1 (CNJ, published 2017).

How the values were obtained:
cSNK:BSA conjugate [1] = target: T1, cSNK:BSA conjugate (bovine, head-to-tail cyclized; conjugated to BSA carrier); test: BLI (Octet), KD2
T1 construct: also called BSA-cSNK

cSNK:BSA conjugate [2] = target: T1, cSNK:BSA conjugate; test: BLI (Octet), KD1

T1 sequence (P02769 25-607 limits assumed): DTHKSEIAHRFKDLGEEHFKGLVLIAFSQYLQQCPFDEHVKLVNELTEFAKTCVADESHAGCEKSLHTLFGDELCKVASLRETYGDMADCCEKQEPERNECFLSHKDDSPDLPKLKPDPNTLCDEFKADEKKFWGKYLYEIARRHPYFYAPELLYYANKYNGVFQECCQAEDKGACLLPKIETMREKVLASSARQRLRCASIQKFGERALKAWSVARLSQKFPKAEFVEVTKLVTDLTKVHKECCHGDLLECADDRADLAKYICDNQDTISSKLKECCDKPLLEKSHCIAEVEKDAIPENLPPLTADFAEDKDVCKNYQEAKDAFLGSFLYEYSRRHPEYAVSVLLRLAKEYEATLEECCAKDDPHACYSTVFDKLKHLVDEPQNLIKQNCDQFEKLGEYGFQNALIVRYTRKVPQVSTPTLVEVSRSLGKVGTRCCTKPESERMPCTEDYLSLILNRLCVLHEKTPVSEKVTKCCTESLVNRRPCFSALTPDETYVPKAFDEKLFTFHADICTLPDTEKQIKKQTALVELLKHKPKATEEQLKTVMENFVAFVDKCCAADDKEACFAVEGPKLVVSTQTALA

Binder	Kd (cSNK:BSA conjugate [1])	Kd (cSNK:BSA conjugate [2])
5E3HCDR1-S184D (antibody, V domains shown, hu5E3 IgG1 vector mutant; also called 5E3-S184D-AFF) VH: QVQLQQSGPEVKKPGASVKISCKASGYIFTDYYIQWVIHAPGQGLEWIGWIYPGNVNTKYNEKFKGKATLTADKSSSTAYMELSSLTSEDTAVYFCARMDYEAHYWGQGTTVTVSS VL: DIQMTQSPSSLSASVGDRVTITCRASQEISGYLTWLQQKPEGAIKRLIYAASTLDSGVPKRFSGSRSGSDYSLTISSLQPEDFATYNCLQYANYPRTFGGGTKLEIK	3.41 nM	0.214 nM
5E3KCDR3-N93Q + 5E3HCDR3-Y212F (antibody, IgG1, V domains shown, double combination in hu5E3 IgG1) VH: QVQLQQSGPEVKKPGASVKISCKASGYIFTSYYIQWVIHAPGQGLEWIGWIYPGNVNTKYNEKFKGKATLTADKSSSTAYMELSSLTSEDTAVYFCARMDYEAHFWGQGTTVTVSS VL: DIQMTQSPSSLSASVGDRVTITCRASQEISGYLTWLQQKPEGAIKRLIYAASTLDSGVPKRFSGSRSGSDYSLTISSLQPEDFATYNCLQYAQYPRTFGGGTKLEIK	2.8 nM	0.0201 nM
5E3KCDR2-S80D (antibody, IgG1, V domains shown, hu5E3 IgG1 vector mutant; also called 5E3-S80D-AFF) VH: QVQLQQSGPEVKKPGASVKISCKASGYIFTSYYIQWVIHAPGQGLEWIGWIYPGNVNTKYNEKFKGKATLTADKSSSTAYMELSSLTSEDTAVYFCARMDYEAHYWGQGTTVTVSS VL: DIQMTQSPSSLSASVGDRVTITCRASQEISGYLTWLQQKPEGAIKRLIYAASTLDDGVPKRFSGSRSGSDYSLTISSLQPEDFATYNCLQYANYPRTFGGGTKLEIK	3.95 nM	0.0269 nM
5E3HCDR2-V209Y (antibody, IgG1, V domains shown, hu5E3 IgG1 vector mutant) VH: QVQLQQSGPEVKKPGASVKISCKASGYIFTSYYIQWVIHAPGQGLEWIGWIYPGNYNTKYNEKFKGKATLTADKSSSTAYMELSSLTSEDTAVYFCARMDYEAHYWGQGTTVTVSS VL: DIQMTQSPSSLSASVGDRVTITCRASQEISGYLTWLQQKPEGAIKRLIYAASTLDSGVPKRFSGSRSGSDYSLTISSLQPEDFATYNCLQYANYPRTFGGGTKLEIK	2.4 nM	0.0107 nM
5E3HCDR3-A210G (antibody, IgG1, V domains shown, hu5E3 IgG1 vector mutant) VH: QVQLQQSGPEVKKPGASVKISCKASGYIFTSYYIQWVIHAPGQGLEWIGWIYPGNVNTKYNEKFKGKATLTADKSSSTAYMELSSLTSEDTAVYFCARMDYEGHYWGQGTTVTVSS VL: DIQMTQSPSSLSASVGDRVTITCRASQEISGYLTWLQQKPEGAIKRLIYAASTLDSGVPKRFSGSRSGSDYSLTISSLQPEDFATYNCLQYANYPRTFGGGTKLEIK	9.97 nM	1.73 nM
5E3KCDR3-L89I + 5E3HCDR3-E209Q (antibody, IgG1, V domains shown, double combination in hu5E3 IgG1) VH: QVQLQQSGPEVKKPGASVKISCKASGYIFTSYYIQWVIHAPGQGLEWIGWIYPGNVNTKYNEKFKGKATLTADKSSSTAYMELSSLTSEDTAVYFCARMDYQAHYWGQGTTVTVSS VL: DIQMTQSPSSLSASVGDRVTITCRASQEISGYLTWLQQKPEGAIKRLIYAASTLDSGVPKRFSGSRSGSDYSLTISSLQPEDFATYNCIQYANYPRTFGGGTKLEIK	–	19.8 nM
5E3KCDR2-G81D (antibody, IgG1, V domains shown, hu5E3 IgG1 vector mutant; also called 5E3-G81D-AFF) VH: QVQLQQSGPEVKKPGASVKISCKASGYIFTSYYIQWVIHAPGQGLEWIGWIYPGNVNTKYNEKFKGKATLTADKSSSTAYMELSSLTSEDTAVYFCARMDYEAHYWGQGTTVTVSS VL: DIQMTQSPSSLSASVGDRVTITCRASQEISGYLTWLQQKPEGAIKRLIYAASTLDSDVPKRFSGSRSGSDYSLTISSLQPEDFATYNCLQYANYPRTFGGGTKLEIK	2.33 nM	0.0192 nM
5E3KCDR3-A116Y (antibody, IgG1, V domains shown, hu5E3 IgG1 vector mutant) VH: QVQLQQSGPEVKKPGASVKISCKASGYIFTSYYIQWVIHAPGQGLEWIGWIYPGNVNTKYNEKFKGKATLTADKSSSTAYMELSSLTSEDTAVYFCARMDYEAHYWGQGTTVTVSS VL: DIQMTQSPSSLSASVGDRVTITCRASQEISGYLTWLQQKPEGAIKRLIYAASTLDSGVPKRFSGSRSGSDYSLTISSLQPEDFATYNCLQYYNYPRTFGGGTKLEIK	1.93 nM	< 0.001 nM
5E3HCDR2-K212D (antibody, IgG1, V domains shown, hu5E3 IgG1 vector mutant; also called 5E3-K212D-AFF) VH: QVQLQQSGPEVKKPGASVKISCKASGYIFTSYYIQWVIHAPGQGLEWIGWIYPGNVNTDYNEKFKGKATLTADKSSSTAYMELSSLTSEDTAVYFCARMDYEAHYWGQGTTVTVSS VL: DIQMTQSPSSLSASVGDRVTITCRASQEISGYLTWLQQKPEGAIKRLIYAASTLDSGVPKRFSGSRSGSDYSLTISSLQPEDFATYNCLQYANYPRTFGGGTKLEIK	2.36 nM	0.0171 nM
5E3KCDR3-N93Q (antibody, IgG1, V domains shown, hu5E3 IgG1 vector mutant) VH: QVQLQQSGPEVKKPGASVKISCKASGYIFTSYYIQWVIHAPGQGLEWIGWIYPGNVNTKYNEKFKGKATLTADKSSSTAYMELSSLTSEDTAVYFCARMDYEAHYWGQGTTVTVSS VL: DIQMTQSPSSLSASVGDRVTITCRASQEISGYLTWLQQKPEGAIKRLIYAASTLDSGVPKRFSGSRSGSDYSLTISSLQPEDFATYNCLQYAQYPRTFGGGTKLEIK	0.76 nM	9.12 nM
5E3KCDR3-N93D + 5E3HCDR3-Y212F (antibody, IgG1, V domains shown, double combination in hu5E3 IgG1) VH: QVQLQQSGPEVKKPGASVKISCKASGYIFTSYYIQWVIHAPGQGLEWIGWIYPGNVNTKYNEKFKGKATLTADKSSSTAYMELSSLTSEDTAVYFCARMDYEAHFWGQGTTVTVSS VL: DIQMTQSPSSLSASVGDRVTITCRASQEISGYLTWLQQKPEGAIKRLIYAASTLDSGVPKRFSGSRSGSDYSLTISSLQPEDFATYNCLQYADYPRTFGGGTKLEIK	2.41 nM	0.0194 nM
5E3HCDR3-Y208F (antibody, IgG1, V domains shown, hu5E3 IgG1 vector mutant) VH: QVQLQQSGPEVKKPGASVKISCKASGYIFTSYYIQWVIHAPGQGLEWIGWIYPGNVNTKYNEKFKGKATLTADKSSSTAYMELSSLTSEDTAVYFCARMDFEAHYWGQGTTVTVSS VL: DIQMTQSPSSLSASVGDRVTITCRASQEISGYLTWLQQKPEGAIKRLIYAASTLDSGVPKRFSGSRSGSDYSLTISSLQPEDFATYNCLQYANYPRTFGGGTKLEIK	0.001 nM	21.5 nM

Results, then the binder that gave them:

Kd (cSNK:BSA conjugate [1])	Kd (cSNK:BSA conjugate [2])	Binder
6.05 nM	1.86 nM	5E3HCDR3-E209Q (antibody, IgG1, V domains shown, hu5E3 IgG1 vector mutant) VH: QVQLQQSGPEVKKPGASVKISCKASGYIFTSYYIQWVIHAPGQGLEWIGWIYPGNVNTKYNEKFKGKATLTADKSSSTAYMELSSLTSEDTAVYFCARMDYQAHYWGQGTTVTVSS VL: DIQMTQSPSSLSASVGDRVTITCRASQEISGYLTWLQQKPEGAIKRLIYAASTLDSGVPKRFSGSRSGSDYSLTISSLQPEDFATYNCLQYANYPRTFGGGTKLEIK
8.25 nM	1.58 nM	5E3HCDR3-Y212F (antibody, IgG1, V domains shown, hu5E3 IgG1 vector mutant) VH: QVQLQQSGPEVKKPGASVKISCKASGYIFTSYYIQWVIHAPGQGLEWIGWIYPGNVNTKYNEKFKGKATLTADKSSSTAYMELSSLTSEDTAVYFCARMDYEAHFWGQGTTVTVSS VL: DIQMTQSPSSLSASVGDRVTITCRASQEISGYLTWLQQKPEGAIKRLIYAASTLDSGVPKRFSGSRSGSDYSLTISSLQPEDFATYNCLQYANYPRTFGGGTKLEIK
2.57 nM	0.0333 nM	5E3HCDR3-E255D (antibody, IgG1, V domains shown, hu5E3 IgG1 vector mutant; same change as 5E3HCDR3-E209D; also called 5E3-E255D-AFF) VH: QVQLQQSGPEVKKPGASVKISCKASGYIFTSYYIQWVIHAPGQGLEWIGWIYPGNVNTKYNEKFKGKATLTADKSSSTAYMELSSLTSEDTAVYFCARMDYDAHYWGQGTTVTVSS VL: DIQMTQSPSSLSASVGDRVTITCRASQEISGYLTWLQQKPEGAIKRLIYAASTLDSGVPKRFSGSRSGSDYSLTISSLQPEDFATYNCLQYANYPRTFGGGTKLEIK
17.4 nM	1.62 nM	5E3KCDR3-L89I (antibody, IgG1, V domains shown, hu5E3 IgG1 vector mutant) VH: QVQLQQSGPEVKKPGASVKISCKASGYIFTSYYIQWVIHAPGQGLEWIGWIYPGNVNTKYNEKFKGKATLTADKSSSTAYMELSSLTSEDTAVYFCARMDYEAHYWGQGTTVTVSS VL: DIQMTQSPSSLSASVGDRVTITCRASQEISGYLTWLQQKPEGAIKRLIYAASTLDSGVPKRFSGSRSGSDYSLTISSLQPEDFATYNCIQYANYPRTFGGGTKLEIK
9.9 nM	4.25 nM	5E3KCDR3-N93D (antibody, IgG1, V domains shown, hu5E3 IgG1 vector mutant; same change as 5E3KCDR3-N117D) VH: QVQLQQSGPEVKKPGASVKISCKASGYIFTSYYIQWVIHAPGQGLEWIGWIYPGNVNTKYNEKFKGKATLTADKSSSTAYMELSSLTSEDTAVYFCARMDYEAHYWGQGTTVTVSS VL: DIQMTQSPSSLSASVGDRVTITCRASQEISGYLTWLQQKPEGAIKRLIYAASTLDSGVPKRFSGSRSGSDYSLTISSLQPEDFATYNCLQYADYPRTFGGGTKLEIK
4.2 nM	0.021 nM	5E3KCDR3-L89I + 5E3HCDR3-Y212F (antibody, IgG1, V domains shown, double combination in hu5E3 IgG1) VH: QVQLQQSGPEVKKPGASVKISCKASGYIFTSYYIQWVIHAPGQGLEWIGWIYPGNVNTKYNEKFKGKATLTADKSSSTAYMELSSLTSEDTAVYFCARMDYEAHFWGQGTTVTVSS VL: DIQMTQSPSSLSASVGDRVTITCRASQEISGYLTWLQQKPEGAIKRLIYAASTLDSGVPKRFSGSRSGSDYSLTISSLQPEDFATYNCIQYANYPRTFGGGTKLEIK
3.05 nM	0.0138 nM	5E3KCDR2-S80Y (antibody, IgG1, V domains shown, hu5E3 IgG1 vector mutant) VH: QVQLQQSGPEVKKPGASVKISCKASGYIFTSYYIQWVIHAPGQGLEWIGWIYPGNVNTKYNEKFKGKATLTADKSSSTAYMELSSLTSEDTAVYFCARMDYEAHYWGQGTTVTVSS VL: DIQMTQSPSSLSASVGDRVTITCRASQEISGYLTWLQQKPEGAIKRLIYAASTLDYGVPKRFSGSRSGSDYSLTISSLQPEDFATYNCLQYANYPRTFGGGTKLEIK
3.06 nM	0.302 nM	5E3KCDR2-A74D (antibody, IgG1, V domains shown, hu5E3 IgG1 vector mutant; also called 5E3-A74D-AFF) VH: QVQLQQSGPEVKKPGASVKISCKASGYIFTSYYIQWVIHAPGQGLEWIGWIYPGNVNTKYNEKFKGKATLTADKSSSTAYMELSSLTSEDTAVYFCARMDYEAHYWGQGTTVTVSS VL: DIQMTQSPSSLSASVGDRVTITCRASQEISGYLTWLQQKPEGAIKRLIYDASTLDSGVPKRFSGSRSGSDYSLTISSLQPEDFATYNCLQYANYPRTFGGGTKLEIK
9.13 nM	3.21 nM	5E3HCDR3-E209D (antibody, IgG1, V domains shown, hu5E3 IgG1 vector mutant; same change as 5E3HCDR3-E255D) VH: QVQLQQSGPEVKKPGASVKISCKASGYIFTSYYIQWVIHAPGQGLEWIGWIYPGNVNTKYNEKFKGKATLTADKSSSTAYMELSSLTSEDTAVYFCARMDYDAHYWGQGTTVTVSS VL: DIQMTQSPSSLSASVGDRVTITCRASQEISGYLTWLQQKPEGAIKRLIYAASTLDSGVPKRFSGSRSGSDYSLTISSLQPEDFATYNCLQYANYPRTFGGGTKLEIK
